# Results: patent US20240092922A1 (EUCURE BEIJING BIOPHARMA, published 2024)
# Target: T1, Histidine-tagged human 4-1BB protein (h4-1BB-His) (human, UniProt Q07011 24-186)
# T1 construct: not shown: histidine tag
# Test: SPR (Biacore T200), antibody on Protein A chip, h4-1BB-His injected;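 note: dissociation phase followed for 300 s, Kd derived as koff divided by kon from the kinetic fit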
Binder,Kd,koff,kon
"5F9-H2K2-IgG4 (antibody, V domains shown, humanized) VH: QVQLKESGPGLVKPSETLSLTCTVSGFSLTTYDISWVRQPPGKGLEWLGVIWTGGGTNYNSSFMSRVTISKDTSKNQVSLKLSSVTAADTAIYYCERVDYWGQGTTVTVSS VL: DVVMTQSPLSLPVTLGQPASISCRSSQSLVHSNGNTYLHWFQQRPGQSPKLLIYKVSNRFSGVPDRFSGSGSGTAFTFKISRVEAEDVGVYYCSQNTHVPWTFGGGTKVEIK",13.4 nM,0.00261 s⁻¹,194000 M⁻¹ s⁻¹
"5F9-H1K1-IgG4 (antibody, V domains shown, humanized) VH: QVQLQESGPGLVKPSETLSLTCTVSGFSLTTYDISWVRQPPGKGLEWIGVIWTGGGTNYNSSFMSRVTISKDTSKNQVSLKLSSVTAADTAVYYCERVDYWGQGTTVTVSS VL: DVVMTQSPLSLPVTLGQPASISCRSSQSLVHSNGNTYLHWFQQRPGQSPRLLIYKVSNRFSGVPDRFSGSGSGTAFTFKISRVEAEDVGVYYCSQNTHVPWTFGGGTKVEIK",11.4 nM,0.00253 s⁻¹,222000 M⁻¹ s⁻¹
"5F9-H1K3-IgG4 (antibody, V domains shown, humanized) VH: QVQLQESGPGLVKPSETLSLTCTVSGFSLTTYDISWVRQPPGKGLEWIGVIWTGGGTNYNSSFMSRVTISKDTSKNQVSLKLSSVTAADTAVYYCERVDYWGQGTTVTVSS VL: DVVMTQSPLSLPVTLGQPASISCRSSQSLVHSNGNTYLHWYQQRPGQSPKLLIYKVSNRFSGVPDRFSGSGSGTAFTFKISRVEAEDVGVYYCSQNTHVPWTFGGGTKLEIK",10.1 nM,0.00208 s⁻¹,206000 M⁻¹ s⁻¹
"5F9-H2K1-IgG4 (antibody, V domains shown, humanized) VH: QVQLKESGPGLVKPSETLSLTCTVSGFSLTTYDISWVRQPPGKGLEWLGVIWTGGGTNYNSSFMSRVTISKDTSKNQVSLKLSSVTAADTAIYYCERVDYWGQGTTVTVSS VL: DVVMTQSPLSLPVTLGQPASISCRSSQSLVHSNGNTYLHWFQQRPGQSPRLLIYKVSNRFSGVPDRFSGSGSGTAFTFKISRVEAEDVGVYYCSQNTHVPWTFGGGTKVEIK",11.2 nM,0.00225 s⁻¹,202000 M⁻¹ s⁻¹
"1C4-H1K3-IgG4 (antibody, V domains shown, humanized) VH: QVQMVQSGAEVKKPGASVKLSCKASGFTFSSSYINWLRQAPGQRLEWMGWIFAGTGGTYYNQKFTGRVTITRDTSASTAYMELSSLRSEDTAIYYCARHSPRATLFDFWGQGTTLTVSS VL: EIVLTQSPATLSLSPGERATMSCRASSSVNHMHWYQQKPGFSPRAWIYATSNLASGIPARFSGSGSGTSFTLTISSLEPEDFATYYCQQWSSNPYTFGGGTKLEIK",21.8 nM,0.000623 s⁻¹,28500 M⁻¹ s⁻¹
"1C4-H2K4-IgG4 (antibody, V domains shown, humanized) VH: QVQMVQSGAEVKKPGASVKLSCKASGFTFSSSYINWLRQAPGQSLEWIGWIFAGTGGTYYNQKFTGRVQITRDTSASTAYMELSSLRSEDTAIYYCARHSPRATLFDFWGQGTTLTVSS VL: EIVLTQSPATLSASPGERVTMSCRASSSVNHMHWYQQRPGFSPRAWIYATSNLASGIPARFSGSGSGTSYSLTISSLEPEDFATYYCQQWSSNPYTFGGGTKLEIK",20.7 nM,0.000521 s⁻¹,25200 M⁻¹ s⁻¹
"1C4-H4K3-IgG4 (antibody, V domains shown, humanized) VH: QGQMVQSGAEVKKPGASVKLSCKTSGFTFSSSYINWLRQAPGQSLEWIAWIFAGTGGTYYNQKFTGRAQLTVDTSASTAYMELSSLRSEDTAIYYCARHSPRATLFDFWGQGTTLTVSS VL: EIVLTQSPATLSLSPGERATMSCRASSSVNHMHWYQQKPGFSPRAWIYATSNLASGIPARFSGSGSGTSFTLTISSLEPEDFATYYCQQWSSNPYTFGGGTKLEIK",16.9 nM,0.000556 s⁻¹,32900 M⁻¹ s⁻¹
"1C4-H4K4-IgG4 (antibody, V domains shown, humanized) VH: QGQMVQSGAEVKKPGASVKLSCKTSGFTFSSSYINWLRQAPGQSLEWIAWIFAGTGGTYYNQKFTGRAQLTVDTSASTAYMELSSLRSEDTAIYYCARHSPRATLFDFWGQGTTLTVSS VL: EIVLTQSPATLSASPGERVTMSCRASSSVNHMHWYQQRPGFSPRAWIYATSNLASGIPARFSGSGSGTSYSLTISSLEPEDFATYYCQQWSSNPYTFGGGTKLEIK",19.3 nM,0.00056 s⁻¹,29000 M⁻¹ s⁻¹
"1C4-H3K4-IgG4 (antibody, V domains shown, humanized) VH: QVQMVQSGAEVKKPGASVKLSCKASGFTFSSSYINWLRQAPGQSLEWIGWIFAGTGGTYYNQKFTGRAQITRDTSASTAYMELSSLRSEDTAIYYCARHSPRATLFDFWGQGTTLTVSS VL: EIVLTQSPATLSASPGERVTMSCRASSSVNHMHWYQQRPGFSPRAWIYATSNLASGIPARFSGSGSGTSYSLTISSLEPEDFATYYCQQWSSNPYTFGGGTKLEIK",15.9 nM,0.000476 s⁻¹,30000 M⁻¹ s⁻¹
"1C4-H4K2-IgG4 (antibody, V domains shown, humanized) VH: QGQMVQSGAEVKKPGASVKLSCKTSGFTFSSSYINWLRQAPGQSLEWIAWIFAGTGGTYYNQKFTGRAQLTVDTSASTAYMELSSLRSEDTAIYYCARHSPRATLFDFWGQGTTLTVSS VL: EIVLTQSPATLSLSPGERATLSCRASSSVNHMHWYQQKPGQAPRALIYATSNLASGIPARFSGSGSGTSFTLTISSLEPEDFATYYCQQWSSNPYTFGGGTKLEIK",16.6 nM,0.00049 s⁻¹,29600 M⁻¹ s⁻¹
"1C4-H3K2-IgG4 (antibody, V domains shown, humanized) VH: QVQMVQSGAEVKKPGASVKLSCKASGFTFSSSYINWLRQAPGQSLEWIGWIFAGTGGTYYNQKFTGRAQITRDTSASTAYMELSSLRSEDTAIYYCARHSPRATLFDFWGQGTTLTVSS VL: EIVLTQSPATLSLSPGERATLSCRASSSVNHMHWYQQKPGQAPRALIYATSNLASGIPARFSGSGSGTSFTLTISSLEPEDFATYYCQQWSSNPYTFGGGTKLEIK",16.3 nM,0.000453 s⁻¹,27700 M⁻¹ s⁻¹

# Further binders by falling Kd, results first:
Kd,koff,kon,Binder
25.1 nM,0.000646 s⁻¹,25800 M⁻¹ s⁻¹,"1C4-H2K2-IgG4 (antibody, V domains shown, humanized) VH: QVQMVQSGAEVKKPGASVKLSCKASGFTFSSSYINWLRQAPGQSLEWIGWIFAGTGGTYYNQKFTGRVQITRDTSASTAYMELSSLRSEDTAIYYCARHSPRATLFDFWGQGTTLTVSS VL: EIVLTQSPATLSLSPGERATLSCRASSSVNHMHWYQQKPGQAPRALIYATSNLASGIPARFSGSGSGTSFTLTISSLEPEDFATYYCQQWSSNPYTFGGGTKLEIK"
23.9 nM,0.000614 s⁻¹,25700 M⁻¹ s⁻¹,"1C4-H1K4-IgG4 (antibody, V domains shown, humanized) VH: QVQMVQSGAEVKKPGASVKLSCKASGFTFSSSYINWLRQAPGQRLEWMGWIFAGTGGTYYNQKFTGRVTITRDTSASTAYMELSSLRSEDTAIYYCARHSPRATLFDFWGQGTTLTVSS VL: EIVLTQSPATLSASPGERVTMSCRASSSVNHMHWYQQRPGFSPRAWIYATSNLASGIPARFSGSGSGTSYSLTISSLEPEDFATYYCQQWSSNPYTFGGGTKLEIK"
19.4 nM,0.000502 s⁻¹,25900 M⁻¹ s⁻¹,"1C4-H2K1-IgG4 (antibody, V domains shown, humanized) VH: QVQMVQSGAEVKKPGASVKLSCKASGFTFSSSYINWLRQAPGQSLEWIGWIFAGTGGTYYNQKFTGRVQITRDTSASTAYMELSSLRSEDTAIYYCARHSPRATLFDFWGQGTTLTVSS VL: EIVLTQSPATLSLSPGERATLSCRASSSVNHMHWYQQKPGQAPRALIYATSNLASGIPARFSGSGSGTSFTLTISSLEPEDFAVYYCQQWSSNPYTFGGGTKLEIK"
18.2 nM,0.000516 s⁻¹,28400 M⁻¹ s⁻¹,"1C4-H4K1-IgG4 (antibody, V domains shown, humanized) VH: QGQMVQSGAEVKKPGASVKLSCKTSGFTFSSSYINWLRQAPGQSLEWIAWIFAGTGGTYYNQKFTGRAQLTVDTSASTAYMELSSLRSEDTAIYYCARHSPRATLFDFWGQGTTLTVSS VL: EIVLTQSPATLSLSPGERATLSCRASSSVNHMHWYQQKPGQAPRALIYATSNLASGIPARFSGSGSGTSFTLTISSLEPEDFAVYYCQQWSSNPYTFGGGTKLEIK"
17.1 nM,0.000533 s⁻¹,31200 M⁻¹ s⁻¹,"1C4-H3K3-IgG4 (antibody, V domains shown, humanized) VH: QVQMVQSGAEVKKPGASVKLSCKASGFTFSSSYINWLRQAPGQSLEWIGWIFAGTGGTYYNQKFTGRAQITRDTSASTAYMELSSLRSEDTAIYYCARHSPRATLFDFWGQGTTLTVSS VL: EIVLTQSPATLSLSPGERATMSCRASSSVNHMHWYQQKPGFSPRAWIYATSNLASGIPARFSGSGSGTSFTLTISSLEPEDFATYYCQQWSSNPYTFGGGTKLEIK"
12.4 nM,0.00269 s⁻¹,216000 M⁻¹ s⁻¹,"5F9-H2K4-IgG4 (antibody, V domains shown, humanized) VH: QVQLKESGPGLVKPSETLSLTCTVSGFSLTTYDISWVRQPPGKGLEWLGVIWTGGGTNYNSSFMSRVTISKDTSKNQVSLKLSSVTAADTAIYYCERVDYWGQGTTVTVSS VL: DVVMTQSPLSLPVTLGDPASISCRSSQSLVHSNGNTYLHWYLQRPGQSPKLLIYKVSNRFSGVPDRFSGSGSGTAFTFKISRVEAEDVGVYYCSQNTHVPWTFGGGTKLEIK"
12 nM,0.00247 s⁻¹,205000 M⁻¹ s⁻¹,"5F9-H1K2-IgG4 (antibody, V domains shown, humanized; also called 30-5F9-H1K2-IgG4) VH: QVQLQESGPGLVKPSETLSLTCTVSGFSLTTYDISWVRQPPGKGLEWIGVIWTGGGTNYNSSFMSRVTISKDTSKNQVSLKLSSVTAADTAVYYCERVDYWGQGTTVTVSS VL: DVVMTQSPLSLPVTLGQPASISCRSSQSLVHSNGNTYLHWFQQRPGQSPKLLIYKVSNRFSGVPDRFSGSGSGTAFTFKISRVEAEDVGVYYCSQNTHVPWTFGGGTKVEIK"
9.95 nM,0.00244 s⁻¹,246000 M⁻¹ s⁻¹,"5F9-H1K4-IgG4 (antibody, V domains shown, humanized) VH: QVQLQESGPGLVKPSETLSLTCTVSGFSLTTYDISWVRQPPGKGLEWIGVIWTGGGTNYNSSFMSRVTISKDTSKNQVSLKLSSVTAADTAVYYCERVDYWGQGTTVTVSS VL: DVVMTQSPLSLPVTLGDPASISCRSSQSLVHSNGNTYLHWYLQRPGQSPKLLIYKVSNRFSGVPDRFSGSGSGTAFTFKISRVEAEDVGVYYCSQNTHVPWTFGGGTKLEIK"
9.81 nM,0.00207 s⁻¹,212000 M⁻¹ s⁻¹,"5F9-H2K3-IgG4 (antibody, V domains shown, humanized) VH: QVQLKESGPGLVKPSETLSLTCTVSGFSLTTYDISWVRQPPGKGLEWLGVIWTGGGTNYNSSFMSRVTISKDTSKNQVSLKLSSVTAADTAIYYCERVDYWGQGTTVTVSS VL: DVVMTQSPLSLPVTLGQPASISCRSSQSLVHSNGNTYLHWYQQRPGQSPKLLIYKVSNRFSGVPDRFSGSGSGTAFTFKISRVEAEDVGVYYCSQNTHVPWTFGGGTKLEIK"
